Source: US20020164696

T1: synthetic peptide corresponding to camel kappa-CN
T1 chain: RPRPRPSXIAI

T2: synthetic peptide corresponding to bovine kappa-CN
T2 chain: HPHPHLSXMAI

B1: recombinant Camelus dromedarius chymosin (protein)
chain: GKVAREPLTSYLDSQYFGKIYIGTPPQEFTVVFDTGSSDLWVPSIYCKSNVCKNHHRFDPRKSSTFRNLGKPLSIHYGTGSMEGFLGYDTVTVSNIVDPNQTVGLSTEQPGEVFTYSEFDGILGLAYPSLASEYSVPVFDNMMDRHLVARDLFSVYMDRNGQGSMLTLGAIDPSYYTGSLHWVPVTLQQYWQFTVDSVTINGVAVACVGGCQAILDTGTSVLFGPSSDILKIQMAIGATENRYGEFDVNCGNLRSMPTVVFEINGRDYPLSPSAYTSKDQGFCTSGFQGDNNSELWILGDVFIREYYSVFDRANNRVGLAKAI
B2: recombinantly produced bovine chymosin, ChyMax (protein)
chain: GEVASVPLTNYLDSQYFGKIYLGTPPQEFTVLFDTGSSDFWVPSIYCKSNACKNHQRFDPRKSSTFQNLGKPLSIHYGTGSMQGILGYDTVTVSNIVDIQQTVGLSTQEPGDVFTYAEFDGILGMAYPSLASEYSIPVFDNMMNRHLVAQDLFSVYMDRNGQESMLTLGAIDPSYYTGSLHWVPVTVQQYWQFTVDSVTISGVVVACEGGCQAILDTGTSKLVGPSSDILNIQQAIGATQNQYGEFDIDCDNLSYMPTVVFEINGKMYPLTPSAYTSQDQGFCTSGFQSENHSQKWILGDVFIREYYSVFDRANNLVGLAKAI

Experiments:
[1] = biological target: T1, synthetic peptide corresponding to …
[2] = biological target: T2, synthetic peptide corresponding to …

| Protein | KM for Cd κ-CN [1] | kcat for Cd κ-CN [1] | KM for Bt κ-CN [2] | kcat for Bt κ-CN [2] |
| --- | --- | --- | --- | --- |
| B1 | 0.056 ± 0.035/-0.021 mM | 5.1 ± 1.7/-1.0 s^-1 | 0.077 ± 0.019/-0.015 mM | 11.7 ± 1.5/-1.2 s^-1 |
| B2 | 0.134 ± 0.022/-0.021 mM | 4.3 s⁻¹ | 0.165 ± 0.015/-0.014 mM | 44.3 s⁻¹ |
